Source: patent US20200157519A1 (IMMUNWORK, published 2020)

Experiments:
mouse fibrinogen = biological target: T1, mouse fibrinogen (mouse, UniProt E9PV24 20-557; Q8K0E8 20-481; Q8VCM7 26-436, limits assumed); experiment: ELISA on coated plate, HRP-protein L detection
T1 construct: Bought protein; also called fibrinogen from mouse (Sigma)
T1 sequence (looked up) 1: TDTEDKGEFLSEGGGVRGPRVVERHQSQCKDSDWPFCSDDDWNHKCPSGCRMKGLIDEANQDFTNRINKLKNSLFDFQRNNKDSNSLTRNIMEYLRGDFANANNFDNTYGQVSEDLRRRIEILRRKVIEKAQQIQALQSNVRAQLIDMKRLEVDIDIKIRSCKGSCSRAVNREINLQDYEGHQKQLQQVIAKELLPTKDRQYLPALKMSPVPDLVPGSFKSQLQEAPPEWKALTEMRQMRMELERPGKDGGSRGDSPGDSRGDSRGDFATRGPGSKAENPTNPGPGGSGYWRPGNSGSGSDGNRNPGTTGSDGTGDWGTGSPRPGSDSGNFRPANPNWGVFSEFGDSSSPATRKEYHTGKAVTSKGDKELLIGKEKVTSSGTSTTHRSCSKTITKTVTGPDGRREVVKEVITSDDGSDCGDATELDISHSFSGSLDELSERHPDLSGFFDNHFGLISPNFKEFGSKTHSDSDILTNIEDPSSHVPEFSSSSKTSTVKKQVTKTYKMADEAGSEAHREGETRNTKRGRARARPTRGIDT
T1 sequence (looked up) 2: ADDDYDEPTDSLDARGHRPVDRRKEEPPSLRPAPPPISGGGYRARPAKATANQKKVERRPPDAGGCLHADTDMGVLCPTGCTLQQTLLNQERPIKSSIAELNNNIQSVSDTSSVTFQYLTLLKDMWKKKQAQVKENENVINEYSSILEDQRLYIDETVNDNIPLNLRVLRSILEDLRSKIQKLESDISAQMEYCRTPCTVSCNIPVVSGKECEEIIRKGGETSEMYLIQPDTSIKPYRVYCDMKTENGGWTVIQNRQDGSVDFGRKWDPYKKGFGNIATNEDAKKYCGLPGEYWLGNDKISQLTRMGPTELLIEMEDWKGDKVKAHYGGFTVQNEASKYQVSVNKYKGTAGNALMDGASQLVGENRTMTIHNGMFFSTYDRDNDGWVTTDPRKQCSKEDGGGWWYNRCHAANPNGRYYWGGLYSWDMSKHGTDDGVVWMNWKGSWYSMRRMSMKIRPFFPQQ
T1 sequence (looked up) 3: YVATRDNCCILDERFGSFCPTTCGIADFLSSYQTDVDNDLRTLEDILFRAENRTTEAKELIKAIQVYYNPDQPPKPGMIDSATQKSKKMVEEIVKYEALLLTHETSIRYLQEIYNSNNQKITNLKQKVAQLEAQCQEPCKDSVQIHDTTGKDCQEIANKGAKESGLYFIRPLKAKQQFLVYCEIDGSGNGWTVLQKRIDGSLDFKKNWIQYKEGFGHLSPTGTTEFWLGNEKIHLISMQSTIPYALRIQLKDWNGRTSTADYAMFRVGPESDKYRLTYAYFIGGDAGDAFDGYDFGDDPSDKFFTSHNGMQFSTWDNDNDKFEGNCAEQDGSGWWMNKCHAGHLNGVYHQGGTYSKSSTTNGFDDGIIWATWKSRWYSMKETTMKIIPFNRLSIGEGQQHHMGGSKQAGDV

[1] = biological target: T2, mouse fibrin (mouse fibrinogen coated on the plate and treated with thrombin) (mouse, UniProt E9PV24 37-557; Q8K0E8 35-481; Q8VCM7 26-436); experiment: ELISA at 200 nM on mouse fibrin plate, HRP-protein L
T2 construct: Made on the plate from mouse fibrinogen (Sigma) with thrombin
T2 sequence (looked up) 1: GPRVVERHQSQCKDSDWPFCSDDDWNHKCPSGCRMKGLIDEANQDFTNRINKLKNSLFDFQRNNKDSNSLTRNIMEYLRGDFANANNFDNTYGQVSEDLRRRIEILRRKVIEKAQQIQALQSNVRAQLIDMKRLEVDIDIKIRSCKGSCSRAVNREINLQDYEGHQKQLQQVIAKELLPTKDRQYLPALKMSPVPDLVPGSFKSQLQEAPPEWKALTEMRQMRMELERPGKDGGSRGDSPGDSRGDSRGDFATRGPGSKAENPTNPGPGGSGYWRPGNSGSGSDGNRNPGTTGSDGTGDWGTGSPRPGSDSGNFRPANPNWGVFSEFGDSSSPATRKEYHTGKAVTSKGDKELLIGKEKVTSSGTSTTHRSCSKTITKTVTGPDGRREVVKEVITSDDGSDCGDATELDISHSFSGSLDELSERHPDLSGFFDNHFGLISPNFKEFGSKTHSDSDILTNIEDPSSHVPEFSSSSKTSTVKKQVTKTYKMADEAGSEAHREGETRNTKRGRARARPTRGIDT
T2 sequence (looked up) 2: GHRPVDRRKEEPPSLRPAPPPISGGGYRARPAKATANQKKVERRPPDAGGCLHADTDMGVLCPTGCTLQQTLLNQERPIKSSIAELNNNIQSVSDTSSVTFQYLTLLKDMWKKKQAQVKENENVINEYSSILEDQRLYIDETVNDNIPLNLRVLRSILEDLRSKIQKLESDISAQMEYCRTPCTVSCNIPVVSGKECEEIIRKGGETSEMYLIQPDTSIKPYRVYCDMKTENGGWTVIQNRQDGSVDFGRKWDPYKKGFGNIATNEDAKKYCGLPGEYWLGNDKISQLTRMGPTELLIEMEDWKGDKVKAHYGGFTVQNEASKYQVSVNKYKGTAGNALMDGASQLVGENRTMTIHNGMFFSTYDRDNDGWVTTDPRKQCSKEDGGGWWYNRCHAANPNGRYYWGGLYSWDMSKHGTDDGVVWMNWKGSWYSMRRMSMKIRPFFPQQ
T2 sequence (looked up) 3: T1 sequence (looked up) 3
Method: The procedures for ELISA analysis were similar to the procedures described in the previous Examples. Briefly, fibrinogen from mouse (Sigma) diluted with PBS was added to a 96-well polystyrene microplate at 100 μL/well, and then the plate was sealed and allowed to stand at 4° C., overnight.
Each fibrin plate was prepared as follows. 100 μL of TBS containing a final concentration of 1.0 U/mL thrombin (Sigma), 2 mM CaCl₂ and 7 mM L-cysteine (Merck) was added to the wells of the fibrinogen plate, which was then washed with TBS and blocked with the buffer (5% non-fat dry milk/PBS). Thereafter, 100 μL of reteplase-(3D5-scFv) at various final concentrations (600 nM, 200 nM, 66 nM, 22 nM, 7.4 nM, 2.5 nM, and 0.8 nM) were added to each well and incubate at room temperature for 1 hour. The plate was than washed for three times, and HRP-conjugated protein L diluted to 1/5000 was added to the wells and incubated for 1 hour at room temperature. The wells were washed three times and added with 100 μL of TMB substrate buffer. 5 minutes later, the color development was stopped with 1 M HCl. The optical density (OD) was measured at 450 nm using a microplate reader.

- binding result (mouse fibrinogen): no binding (tested: 200 nM)
- binding result [1]: binds
B1: recombinant reteplase-(3D5 VL-218-VH scFv α fibrin) protein (other)
chain: SYQGNSDCYFGNGSAYRGTHSLTESGASCLPWNSMILIGKVYTAQNPSAQALGLGKHNYCRNPDGDAKPWCHVLKNRRLTWEYCDVPSCSTCGLRQYSQPQFRIKGGLFADIASHPWQAAIFAKHRRSPGERFLCGGILISSCWILSAAHCFQERFPPHHLTVILGRTYRVVPGEEEQKFEVEKYIVHKEFDDDTYDNDIALLQLKSDSSRCAQESSVVRTVCLPPADLQLPDWTECELSGYGKHEALSPFYSERLKEAHVRLYPSSRCTSQHLLNRTVTDNMLCAGDTRSGGPQANLHDACQGDSGGPLVCLNDGRMTLVGIISWGLGCGQKDVPGVYTKVTNYLDWIRDNMRPASGGGGSGGGGSGGGGSDIQMTQSPSSLSASVGDRVTITCRASQDVSNNVAWYQQKPGKAPKLLIFWSPWLYSGVPSRFSGSGSGTDFTLTISSLQPEDFATYYCQQGWDSPVTFGQGTKVEIKRGSTSGSGKPGSGEGSTKGEVQLVESGGGLVQPGGSLRLSCAASGFTISDFGIHWVRQAPGKGLEWVASIWPSGGYTYYADSVKGRFTISADTSKNTAYLQMNSLRAEDTAVYYCARSWFYSWYDYWGQGTLVTVSS
notes: Fusion: reteplase, flexible linker, 3D5 VL, 218 linker, 3D5 VH; also called reteplase-(3D5 scFv); reteplase-(3D5-scFv)
